Source: patent US20170218087A1

Molecular target: cell surface TrkA on the human erythroleukemic cell line TF-1 (human), P04629
Test: cell-based or functional assay

Chain of cell surface TrkA on the human erythroleukemic cell line TF-1 (human), P04629 (P04629 33-796): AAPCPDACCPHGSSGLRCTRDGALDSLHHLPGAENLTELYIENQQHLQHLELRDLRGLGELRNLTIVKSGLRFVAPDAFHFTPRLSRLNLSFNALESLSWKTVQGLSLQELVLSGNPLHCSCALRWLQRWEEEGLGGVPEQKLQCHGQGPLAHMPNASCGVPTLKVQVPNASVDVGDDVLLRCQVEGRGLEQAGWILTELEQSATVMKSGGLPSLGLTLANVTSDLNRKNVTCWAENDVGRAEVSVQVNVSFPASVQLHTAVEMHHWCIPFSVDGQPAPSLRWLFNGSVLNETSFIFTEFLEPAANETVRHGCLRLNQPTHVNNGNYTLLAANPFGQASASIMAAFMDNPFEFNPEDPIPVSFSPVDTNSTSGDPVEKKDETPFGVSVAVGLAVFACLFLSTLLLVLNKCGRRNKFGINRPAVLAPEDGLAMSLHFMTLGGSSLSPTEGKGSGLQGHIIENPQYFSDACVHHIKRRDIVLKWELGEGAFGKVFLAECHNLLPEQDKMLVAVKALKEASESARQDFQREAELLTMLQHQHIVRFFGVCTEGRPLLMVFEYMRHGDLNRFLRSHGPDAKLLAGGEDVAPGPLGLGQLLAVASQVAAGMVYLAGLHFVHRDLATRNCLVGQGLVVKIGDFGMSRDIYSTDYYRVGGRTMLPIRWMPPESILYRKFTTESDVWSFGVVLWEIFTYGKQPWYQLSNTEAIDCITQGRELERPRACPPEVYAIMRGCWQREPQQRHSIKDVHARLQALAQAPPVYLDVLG

TF-1 cell proliferation assay IC50 (NGF-induced): 0.23 µg/mL
B1: MNAC13 mouse antibody (antibody, mouse IgG1, kappa)
heavy: EVKLVESGGGLVQPGGSLKLSCAASGFTFSTYTMSWARQTPEKRLEWVAYISKGGGSTYYPDTVKGRFTISRDNAKNTLYLQMSSLKSEDTALYYCARGAMYGNDFFYPMDYWGQGTSVTVSSKTTPPSVYPLAPGSAAQTNSMVTLGCLVKGYFPEPVTVTWNSGSLSSGVHTFPAVLESDLYTLSSSVTVPSSPRPSETVTCNVAHPASSTKVDKKIVPRDCGCKPCICTVPEVSSVFIFPPKPKDVLTITLTPKVTCVVVDISKDDPEVQFSWFVDDVEVHTAQTQPREEQFNSTFRSVSELPIMHQDWLNGKEFKCRVNSAAFPAPIEKTISKTKGRPKAPQVYTIPPPKEQMAKDKVSLTCMITDFFPEDITVEWQWNGQPAENYKNTQPIMNTNGSYFVYSKLNVQKSNWEAGNTFTCSVLHEGLHNHHTEKSLSHSPGK
light: QIVLTQSPAIMSASLGEEITLTCSASSSVSYMHWYQQKSGTSPKLLIYTTSNLASGVPSRFSGSGSGTFYSLTISSVEAEDAADYYCHQWSSYPWTFGGGTKLEIKADAAPTVSIFPPSSEQLTSGGASVVCFLNNFYPKDINVKWKIDGSERQNGVLNSWTDQDSKDSTYSMSSTLTLTKDEYERHNSYTCEATHKTSTSPIVKSFNRNEC
